In publication PMC3817407:
Several values for one entry are separate records, joined by “and”; a condition that tells them apart may be missing. Equal values may be shown once.

Tests used:
[1] = target: ECF26_4464
[2] = target: T1, ECF17_1691
T1 chain: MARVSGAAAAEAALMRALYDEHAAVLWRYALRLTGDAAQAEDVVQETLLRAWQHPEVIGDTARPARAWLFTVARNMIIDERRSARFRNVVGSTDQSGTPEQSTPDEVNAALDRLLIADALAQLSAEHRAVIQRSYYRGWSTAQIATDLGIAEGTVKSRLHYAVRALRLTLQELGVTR

[3] = target: T2, ECF02_915
T2 chain: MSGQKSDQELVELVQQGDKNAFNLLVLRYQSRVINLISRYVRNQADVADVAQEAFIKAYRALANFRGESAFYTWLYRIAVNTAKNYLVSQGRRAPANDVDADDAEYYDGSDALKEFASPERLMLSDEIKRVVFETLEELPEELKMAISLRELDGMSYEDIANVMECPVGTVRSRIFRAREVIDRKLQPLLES

[4] = target: T3, ECF33_423
T3 chain: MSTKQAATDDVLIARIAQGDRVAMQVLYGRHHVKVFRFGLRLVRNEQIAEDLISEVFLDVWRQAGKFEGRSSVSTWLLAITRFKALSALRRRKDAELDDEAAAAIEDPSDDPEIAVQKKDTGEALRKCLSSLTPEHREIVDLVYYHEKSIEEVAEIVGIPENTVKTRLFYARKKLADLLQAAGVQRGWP

[5] = target: T4, ECF28_1088
T4 chain: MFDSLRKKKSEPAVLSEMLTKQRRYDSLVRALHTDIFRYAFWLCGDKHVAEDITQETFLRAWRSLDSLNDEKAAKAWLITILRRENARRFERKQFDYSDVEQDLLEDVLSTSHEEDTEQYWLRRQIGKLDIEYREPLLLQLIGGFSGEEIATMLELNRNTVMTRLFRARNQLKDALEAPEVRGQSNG

[6] = target: T5, ECF12_807
T5 chain: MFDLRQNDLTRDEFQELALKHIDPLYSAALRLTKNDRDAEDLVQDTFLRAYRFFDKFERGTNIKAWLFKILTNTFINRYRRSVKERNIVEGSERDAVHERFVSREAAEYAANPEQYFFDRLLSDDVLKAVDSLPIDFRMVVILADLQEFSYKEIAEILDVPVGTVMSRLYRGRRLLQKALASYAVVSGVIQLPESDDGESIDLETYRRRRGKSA

[7] = target: T6, ECF22_1147
T6 chain: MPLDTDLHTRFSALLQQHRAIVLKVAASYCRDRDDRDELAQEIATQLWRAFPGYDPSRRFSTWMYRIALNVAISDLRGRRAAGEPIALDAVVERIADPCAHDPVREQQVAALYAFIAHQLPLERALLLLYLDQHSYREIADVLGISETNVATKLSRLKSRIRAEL

[8] = target: T7, ECF25_1643
T7 chain: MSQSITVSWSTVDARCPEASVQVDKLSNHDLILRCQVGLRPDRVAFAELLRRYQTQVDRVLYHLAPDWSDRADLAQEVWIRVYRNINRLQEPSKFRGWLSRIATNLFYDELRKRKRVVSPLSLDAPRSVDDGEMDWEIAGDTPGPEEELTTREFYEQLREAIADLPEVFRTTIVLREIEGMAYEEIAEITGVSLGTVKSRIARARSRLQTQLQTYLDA

[9] = target: T8, ECF28_1040
T8 chain: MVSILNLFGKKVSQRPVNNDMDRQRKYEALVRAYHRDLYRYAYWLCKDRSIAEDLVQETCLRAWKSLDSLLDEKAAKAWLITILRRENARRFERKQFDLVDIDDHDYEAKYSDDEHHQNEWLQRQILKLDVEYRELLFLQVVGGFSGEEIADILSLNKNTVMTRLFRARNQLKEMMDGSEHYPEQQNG

[10] = target: T9, ECF33_375
T9 chain: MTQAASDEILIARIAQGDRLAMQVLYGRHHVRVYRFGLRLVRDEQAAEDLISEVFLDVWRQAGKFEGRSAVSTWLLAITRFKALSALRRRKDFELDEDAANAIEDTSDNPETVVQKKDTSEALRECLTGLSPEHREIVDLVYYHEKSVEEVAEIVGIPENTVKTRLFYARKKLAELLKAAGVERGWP

[11] = target: T10, ECF11_987
T10 chain: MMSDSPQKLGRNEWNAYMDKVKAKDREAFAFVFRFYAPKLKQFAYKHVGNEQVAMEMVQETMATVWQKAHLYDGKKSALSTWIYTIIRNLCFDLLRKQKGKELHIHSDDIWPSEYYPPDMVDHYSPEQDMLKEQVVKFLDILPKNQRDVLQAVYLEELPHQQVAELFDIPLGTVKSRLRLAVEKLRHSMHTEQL

[12] = target: T11, ECF35_3582
T11 chain: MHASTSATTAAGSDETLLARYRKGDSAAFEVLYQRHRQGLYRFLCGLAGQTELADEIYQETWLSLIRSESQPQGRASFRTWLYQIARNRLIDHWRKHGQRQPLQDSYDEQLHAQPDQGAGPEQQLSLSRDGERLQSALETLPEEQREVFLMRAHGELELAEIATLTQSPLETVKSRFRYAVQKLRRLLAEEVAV

[13] = target: T12, ECF04_1609
T12 chain: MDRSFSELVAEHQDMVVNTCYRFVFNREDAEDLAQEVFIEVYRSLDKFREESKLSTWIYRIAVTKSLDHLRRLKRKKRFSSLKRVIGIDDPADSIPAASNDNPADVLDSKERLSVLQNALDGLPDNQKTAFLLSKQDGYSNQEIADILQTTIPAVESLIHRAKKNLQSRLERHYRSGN

[14] = target: T13, ECF14_1324
T13 chain: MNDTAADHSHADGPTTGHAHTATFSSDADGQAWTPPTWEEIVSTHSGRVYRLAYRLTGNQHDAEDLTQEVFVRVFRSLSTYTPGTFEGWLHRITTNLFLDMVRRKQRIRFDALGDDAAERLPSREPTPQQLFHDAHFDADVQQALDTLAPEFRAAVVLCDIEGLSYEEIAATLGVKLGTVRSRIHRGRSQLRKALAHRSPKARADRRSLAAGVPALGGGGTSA

[15] = target: T14, ECF30_35
T14 chain: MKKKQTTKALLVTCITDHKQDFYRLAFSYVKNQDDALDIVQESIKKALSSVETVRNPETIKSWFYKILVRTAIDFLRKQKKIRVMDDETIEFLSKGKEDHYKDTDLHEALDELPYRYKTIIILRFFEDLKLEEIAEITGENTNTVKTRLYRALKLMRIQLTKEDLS

B1: AS25_1643_cl43 (protein)
chain: MTTDSNFNDPCRRQFSRDLPQKMARHTNEATGAMDMVKRDRFELLSAYLGGEVTAAERRQVEDWPANDVAVQRLYSRLLKLRQGIRTMPIPTAQQSPETTAEQVFAKVNRRSRLAWKLGGAAVAACVIGAVTNWLPGRQTGIPQLAQQPQEQPTQAVTTPDALPMIALNNPVIEIPKAAVASPTKFIQPQPQLGEIPPDIN
Q: How did the fold repression [1] turn out when B1 was run?
A: 6.66

Q: And the fold repression [2]?
A: 1.92

Q: And the fold repression [3]?
A: 6.67

Q: What about the fold repression [4] of the same binder?
A: 1.23

Q: And the fold repression [5]?
A: 1.48

Q: What about the fold repression [6] of the same binder?
A: 4.23

Q: And the fold repression [7]?
A: 5.45

Q: And the fold repression [8]?
A: 4.28 and 3.89

Q: What about the fold repression [9] of the same binder?
A: 1.09

Q: What about the fold repression [10] of the same binder?
A: 0.709

Q: What about the fold repression [11] of the same binder?
A: 2.43

Q: And the fold repression [12]?
A: 1.57

Q: And the fold repression [13]?
A: 2.44

Q: And the fold repression [14]?
A: 1.77

Q: And the fold repression [15]?
A: 0.929

B2: AS31_34 (protein)
chain: MNKEKLSDHLKSEWKKIDQTANPSIPNQKELLHQLSQMKAEYRKKLLQEIILFVFCALMVVSAAILAFTQAPAVFIVLQVCVLAVLPILIAAEKKRHLGECEVKRG
Q: What does the source list for B2?
A: fold repression [1]: 3.63; fold repression [2]: 2.93; fold repression [3]: 1.32; fold repression [4]: 2.25; fold repression [5]: 1.59; fold repression [6]: 3.66; fold repression [7]: 3.62; fold repression [8]: 2.25 and 1.91; fold repression [9]: 2.22; fold repression [10]: 2.06; fold repression [11]: 3.03; fold repression [12]: 2.06; fold repression [13]: 2.79; fold repression [14]: 6.35; fold repression [15]: 1.68

B3: AS30_35 (protein)
chain: MDKRLQQLREEYKNVQIPKELDIIVEKALQQEPKKKRIVMWPTSAAIAAAILFTALVNINPDAAQAMSKIPVIGKIVKAITFIEIKEEKDQSSIDVKTPALSGLSNKELENSINEKYLKESQQLYKEFIQSTSKNKKGHLSIYSDYETVTDTPDLLSIRRNIETTQASSYTQSRYITIDKKNDILLTLKSLFKDERYIKVISQNIKEQMKQQMKEDPNKIYWLTDEDAEPFKTILPDQTFYITEDHKLVISFDEYEVAPGYMGVTEFTIPTGVISNLLVGERYIR
Q: Which results are given for B3?
A: fold repression [1]: 2.19; fold repression [2]: 1.6; fold repression [3]: 2.15; fold repression [4]: 1.99; fold repression [5]: 1.68; fold repression [6]: 3.12; fold repression [7]: 2.12; fold repression [8]: 1.46 and 1.19; fold repression [9]: 1.32; fold repression [10]: 1.3; fold repression [11]: 2.11; fold repression [12]: 6.57; fold repression [13]: 2.43; fold repression [14]: 1.7; fold repression [15]: 55.4

B4: AS25_1645 (protein)
chain: MNESFSQRQTDGDRRRGGDLEMKKNHTSHQHHTDSETPMGHNFEQFQRLSAYFDGEATPAERKEIQHLLDTDPQVKQQYQQLRQLKQALQLLPIPTSISAQYLGQRVLARLRRSQLRTLSLWGSGAIAALFVAGVMGQMPRLNFDRFAKNDPDQQPTAALVETSPQGEEALVVALNRPVLQIPKLATTESP
Q: For B4, which fold repression [1] is on record?
A: 15.3

Q: What about the fold repression [2] of the same binder?
A: 4.24

Q: What about the fold repression [3] of the same binder?
A: 6.91

Q: And the fold repression [4]?
A: 4.92

Q: And the fold repression [5]?
A: 3.89

Q: And the fold repression [6]?
A: 9.09

Q: And the fold repression [7]?
A: 7.04

Q: And the fold repression [8]?
A: 19.5 and 19.2

Q: What about the fold repression [9] of the same binder?
A: 2.95

Q: What about the fold repression [10] of the same binder?
A: 3.29

Q: And the fold repression [11]?
A: 8.87

Q: And the fold repression [12]?
A: 2.98

Q: What about the fold repression [13] of the same binder?
A: 6.4

Q: And the fold repression [14]?
A: 18.7

Q: What about the fold repression [15] of the same binder?
A: 3.43

B5: AS27_1331 (protein)
chain: MSAADKDPDKHSADADPPLTVELLADLQAGLLDDATAARIRSRVRSDPQAQQILRALNRVRRDVAAMGADPAWGPAARPAVVDSISAALRSARPNSSPGAAHAARPHVHPVRMIAGAAGLCAVATAIGVGAVVDAPPPAPSAPTTAQHITVSKPAPVIPLSRPQVLDLLHHTPDYGPPGGPLGDPSRRTSCLSGLGYPASTPVLGAQPIDIDARPAVLLVIPADTPDKLAVFAVAPHCSAADTGLLASTVVPRA
Q: B5 was tested. Which fold repression [1] did it give?
A: 3.61

Q: And the fold repression [2]?
A: 2.09

Q: And the fold repression [3]?
A: 2.72

Q: And the fold repression [4]?
A: 5.1

Q: And the fold repression [5]?
A: 1.37

Q: What about the fold repression [6] of the same binder?
A: 2.07

Q: What about the fold repression [7] of the same binder?
A: 2.2

Q: And the fold repression [8]?
A: 2.81 and 2.4

Q: What about the fold repression [9] of the same binder?
A: 1.5

Q: And the fold repression [10]?
A: 4.75

Q: And the fold repression [11]?
A: 5.69

Q: And the fold repression [12]?
A: 5.79

Q: What about the fold repression [13] of the same binder?
A: 5.65

Q: What about the fold repression [14] of the same binder?
A: 5.93

Q: What about the fold repression [15] of the same binder?
A: 3.98

B6: AS27_4265 (protein)
chain: MTGHPDVAEIADLAEGLLPTTRTTEVRQHLESCELCADVYASLTEIQGLLGTLPAPAPMPDDVAARIDAALAAEPPLGIADGTRVSRETSTPADRPAGHARPSSTGPGRKDRRRGGRRRIAVLGAVAAAAAIGIGSVVVSSLTEDSSSGNTAREQQTAIADTFSEGRLKDRVTNLVADGSAENGSRTPRSFGMESENGGETAENHVFKQPTVPECIRKGIGRDDAVIATEPGVYKGREALLVVLPDATNDTQVTAYIVETACVDQPAVGKAKILLEHSYARS
Q: Which results are given for B6?
A: fold repression [1]: 5.53; fold repression [2]: 2.82; fold repression [3]: 2.41; fold repression [4]: 1.63; fold repression [5]: 2.14; fold repression [6]: 8.59; fold repression [7]: 8.51; fold repression [8]: 1.63 and 1.17; fold repression [9]: 2.19; fold repression [10]: 1.07; fold repression [11]: 5.93; fold repression [12]: 1.97; fold repression [13]: 2.44; fold repression [14]: 3.08; fold repression [15]: 5.45
